Source: patent publication US20260242478A1 (published 2026)
Where no end group is shown, it is not given here.

B1: Phage-3081 (peptide-180 library clone) (peptide)
peptide: TDHLCVPSWMCLGF
B2: Phage-3075 (peptide-180 library clone) (peptide)
peptide: YEQLCKPLWMCQGF
B3: Phage-3083 (peptide-180 library clone) (peptide)
peptide: GQNLCIPSWMCEGF
B4: Phage-3098 (peptide)
peptide: EHILCRPVWMCEGF
B5: Phage-3099 (peptide)
peptide: MGPVCKPAWMCLEF
B6: Phage-3082 (peptide-180 library clone) (peptide)
peptide: DGPLCVPQWMCLWL
B7: Phage-3122 (peptide)
peptide: GMIQCRPAWMCAGL
modifications: cysteine pairing not given here; also: fused to phage pIII, orientation and linker not given here
B8: Phage-3090 (peptide)
peptide: VSIMCTPLWMCEGF
B9: Phage-3093 (peptide)
peptide: VEPYCKPAWMCTGF
B10: Phage-3069 (peptide)
peptide: ISPVCIPSWMCLGL
B11: Phage-3091 (peptide)
peptide: TELACKPLWMCNGF
B12: Phage-3119 (peptide)
peptide: DYHYCEPAWMCFGF
B13: Phage-3074 (peptide-180 library clone) (peptide)
peptide: TASWCKPGGACKGF
B14: Phage-3115 (peptide)
peptide: EFPLCVPAWMCSGF
B15: Phage-3087 (peptide-180 library clone) (peptide)
peptide: VDLICRPAWMCSGF
B16: Phage-3085 (peptide-180 library clone) (peptide)
peptide: LEHMCRPSWMCTGF
B17: Phage-3089 (peptide)
peptide: TDQLCKPLWMCTGF
B18: Phage-3070 (peptide)
peptide: LEKACVPQWMCYGL
B19: Phage-3101 (peptide)
peptide: ILPQCVPAWMCSGF
B20: Phage-3079 (peptide-180 library clone) (peptide)
peptide: HLMACKPAWMCLGL
B21: Phage-3116 (peptide)
peptide: FHIMCQPEWMCLGF
B22: Phage-3100 (peptide)
peptide: PMPVCVPMWMCYGF
B23: Phage-3094 (peptide)
peptide: GAMVCKPAWMCQGF
B24: Phage-3077 (peptide-180 library clone) (peptide)
peptide: VNHLCKPTWMCAGF
B25: Phage-3088 (peptide)
peptide: VVPRCEPMWMCQGF
B26: Phage-3080 (peptide-180 library clone) (peptide)
peptide: EWMKCVPLWMCEGI
B27: Phage-3084 (peptide-180 library clone) (peptide)
peptide: LDAMCRPLWMCSGF
B28: Phage-3097 (peptide)
peptide: MERMCRPAWMCTAF
B29: Phage-3118 (peptide)
peptide: LESMCIPPWMCSGL
B30: Phage-3078 (peptide-180 library clone) (peptide)
peptide: TYMMCVPEWMCQGF
B31: Phage-3086 (peptide-180 library clone) (peptide)
peptide: FWAQCVPPWMCSGF
B32: Phage-3121 (peptide)
peptide: APVFCKPAWMCPWL
B33: Phage-3096 (peptide)
peptide: QGRVCEPSWMCTGF
B34: Phage-3073 (peptide)
peptide: WLMRCEPQWMCAGF
B35: Phage-3120 (peptide)
peptide: NEPWCVPAWMCTGF
B36: Phage-3092 (peptide)
peptide: TGAICVPEWMCMGF
B37: Phage-3076 (peptide-180 library clone) (peptide)
peptide: DEWICRPAWMCQGF
B38: Phage-3072 (peptide)
peptide: IMMRCEPVWMCEGF
B39: Phage-3071 (peptide)
peptide: SPYFCIPAWMCHGF
B40: Phage-3095 (peptide)
peptide: YDFRCIPSWMCMGI
B41: Phage-3123 (peptide)
peptide: GYPLCIPEWMCAGF
modifications: cysteine pairing not given here; also: fused to phage pIII, orientation and linker not given here
B42: Phage-3117 (peptide)
peptide: SGALCVPLWMCTGF

Experiments:
PSMA Fab (006 PSMA Fab) [1] = target: T1, PSMA Fab (006 PSMA Fab) (Fab biotinylated for capture on neutravidin plates (site not stated)); assay: phage ELISA: clonal phage supernatant on biotinylated PSMA Fab captured on neutravidin plate, blocking buffer alone, anti-M13-HRP detection
T1 construct: also called Anti-PSMA Fab; anti-PSMA Fab

PSMA Fab (006 PSMA Fab) [2] = target: T1, PSMA Fab (006 PSMA Fab); assay: phage ELISA: clonal phage supernatant on biotinylated PSMA Fab captured on neutravidin plate, wells pre-incubated with PSMA antigen as competitor, anti-M13-HRP detection
Method: (§1) Clonal phage were harvested as crude supernatants and screened via standard ELISAs. […] Prior to the addition of clonal phage. wells were incubated with blocking buffer and PSMA antigen or blocking buffer alone. Without washing or aspirating, clonal phage supernatants were then added to the wells and incubated for a short time. Wells were then washed followed by detection of bound phage using a horse radish conjugated anti-M13 antibody.

006 PSMA Fab [3] = target: T2, 006 PSMA Fab; assay: clonal phage ELISA on biotinylated PSMA Fab captured on neutravidin plates, anti-M13 HRP detection;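 further: crude clonal phage supernatants tested, before phage were added, wells were pretreated with PSMA antigen in blocking buffer or with blocking buffer only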
T2 construct: In the panning ELISA the PSMA Fab was biotinylated and captured on neutravidin coated plates; also called Anti-PSMA Fab; anti-PSMA Fab
Method: as §1

006 PSMA Fab [4] = target: T2, 006 PSMA Fab; assay: clonal phage ELISA on captured PSMA Fab pre-incubated with PSMA antigen as competitor, anti-M13 HRP detection;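 further: crude clonal phage supernatants tested by ELISA, wells first treated with blocking buffer plus PSMA antigen, bound phage read out via HRP-linked anti-M13 antibody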
Method: as §1

006 PSMA Fab [5] = target: T3, 006 PSMA Fab (biotinylated (site not stated)); assay: clonal phage ELISA, biotinylated PSMA Fab on neutravidin plate, anti-M13 HRP detection, no PSMA antigen
T3 construct: Biotinylated PSMA Fab captured on neutravidin coated plates in the clonal phage ELISA; also called Anti-PSMA Fab; anti-PSMA Fab

006 PSMA Fab [6] = target: T3, 006 PSMA Fab; assay: clonal phage ELISA, biotinylated PSMA Fab on neutravidin plate, anti-M13 HRP detection; competitor PSMA antigen
Method: as §1

006 PSMA Fab [7] = target: T4, 006 PSMA Fab; assay: clonal phage ELISA on biotinylated PSMA Fab captured on neutravidin, wells pre-incubated with PSMA antigen as competitor, anti-M13 HRP detection
T4 construct: In the phage ELISA the Fab was biotinylated and captured on neutravidin coated plates; also called Anti-PSMA Fab
Method: as §1

006 PSMA Fab [8] = target: T4, 006 PSMA Fab; assay: clonal phage ELISA on biotinylated PSMA Fab captured on neutravidin, anti-M13 HRP detection, no competitor
Method: as §1

Row | Binder | Phage binding ELISA signal, Anti-PSMA Fab (PSMA Fab (006 PSMA Fab) [1]) | Phage binding ELISA signal, Anti-PSMA Fab in presence of PSMA (PSMA Fab (006 PSMA Fab) [2]) | Phage binding ELISA signal, Anti-PSMA Fab (006 PSMA Fab [3]) | Phage binding ELISA signal, Anti-PSMA Fab in the presence of PSMA antigen (006 PSMA Fab [4]) | also measured
1 | B1 | 2.11 | 0.0801 | – | – | –
2 | B2 | 2.12 | 0.0628 | – | – | –
3 | B3 | 2.11 | 0.08 | – | – | –
4 | B4 | – | – | 2.09 | 0.101 | –
5 | B5 | – | – | 2.09 | 0.109 | –
6 | B6 | 2.11 | 0.0699 | – | – | –
7 | B7 | – | – | – | – | phage binding ELISA signal (006 PSMA Fab [5]): 2.07; phage binding ELISA signal with PSMA antigen present (006 PSMA Fab [6]): 0.0928
8 | B8 | – | – | 2.1 | 0.0782 | –
9 | B9 | – | – | 2.1 | 0.11 | –
10 | B10 | – | – | – | – | Phage binding ELISA signal, Anti-PSMA Fab with PSMA antigen (006 PSMA Fab [7]): 0.174; Phage binding ELISA signal, Anti-PSMA Fab (006 PSMA Fab [8]): 2.13
11 | B11 | – | – | 2.1 | 0.0691 | –
12 | B12 | – | – | – | – | phage binding ELISA signal (006 PSMA Fab [5]): 2.07; phage binding ELISA signal with PSMA antigen present (006 PSMA Fab [6]): 0.0726
13 | B13 | 2.12 | 0.0801 | – | – | –
14 | B14 | – | – | – | – | phage binding ELISA signal (006 PSMA Fab [5]): 2.08; phage binding ELISA signal with PSMA antigen present (006 PSMA Fab [6]): 0.0859
15 | B15 | 2.1 | 0.0726 | – | – | –
16 | B16 | 2.1 | 0.0798 | – | – | –
17 | B17 | – | – | 2.1 | 0.0815 | –
18 | B18 | – | – | – | – | Phage binding ELISA signal, Anti-PSMA Fab with PSMA antigen (006 PSMA Fab [7]): 0.0938; Phage binding ELISA signal, Anti-PSMA Fab (006 PSMA Fab [8]): 2.13
19 | B19 | – | – | 2.09 | 0.0784 | –
20 | B20 | 2.11 | 0.135 | – | – | –
21 | B21 | – | – | – | – | phage binding ELISA signal (006 PSMA Fab [5]): 2.08; phage binding ELISA signal with PSMA antigen present (006 PSMA Fab [6]): 0.129

Row | Binder | Phage binding ELISA signal, Anti-PSMA Fab (PSMA Fab (006 PSMA Fab) [1]) | Phage binding ELISA signal, Anti-PSMA Fab in presence of PSMA (PSMA Fab (006 PSMA Fab) [2]) | Phage binding ELISA signal, Anti-PSMA Fab (006 PSMA Fab [3]) | Phage binding ELISA signal, Anti-PSMA Fab in the presence of PSMA antigen (006 PSMA Fab [4]) | also measured
22 | B22 | – | – | 2.09 | 0.0842 | –
23 | B23 | – | – | 2.1 | 0.0731 | –
24 | B24 | 2.12 | 0.0765 | – | – | –
25 | B25 | – | – | 2.1 | 0.0982 | –
26 | B26 | 2.11 | 0.0802 | – | – | –
27 | B27 | 2.11 | 0.0799 | – | – | –
28 | B28 | – | – | 2.09 | 0.107 | –
29 | B29 | – | – | – | – | phage binding ELISA signal (006 PSMA Fab [5]): 2.07; phage binding ELISA signal with PSMA antigen present (006 PSMA Fab [6]): 0.109
30 | B30 | 2.11 | 0.101 | – | – | –
31 | B31 | 2.1 | 0.199 | – | – | –
32 | B32 | – | – | – | – | phage binding ELISA signal (006 PSMA Fab [5]): 2.07; phage binding ELISA signal with PSMA antigen present (006 PSMA Fab [6]): 0.0695
33 | B33 | – | – | 2.09 | 0.0561 | –
34 | B34 | – | – | – | – | Phage binding ELISA signal, Anti-PSMA Fab with PSMA antigen (006 PSMA Fab [7]): 0.131; Phage binding ELISA signal, Anti-PSMA Fab (006 PSMA Fab [8]): 2.12
35 | B35 | – | – | – | – | phage binding ELISA signal (006 PSMA Fab [5]): 2.07; phage binding ELISA signal with PSMA antigen present (006 PSMA Fab [6]): 0.0834
36 | B36 | – | – | 2.1 | 0.0934 | –
37 | B37 | 2.12 | 0.0632 | – | – | –
38 | B38 | – | – | – | – | Phage binding ELISA signal, Anti-PSMA Fab with PSMA antigen (006 PSMA Fab [7]): 0.118; Phage binding ELISA signal, Anti-PSMA Fab (006 PSMA Fab [8]): 2.13
39 | B39 | – | – | – | – | Phage binding ELISA signal, Anti-PSMA Fab with PSMA antigen (006 PSMA Fab [7]): 0.121; Phage binding ELISA signal, Anti-PSMA Fab (006 PSMA Fab [8]): 2.13
40 | B40 | – | – | 2.1 | 0.0693 | –
41 | B41 | – | – | – | – | phage binding ELISA signal (006 PSMA Fab [5]): 2.07; phage binding ELISA signal with PSMA antigen present (006 PSMA Fab [6]): 0.0968
42 | B42 | – | – | – | – | phage binding ELISA signal (006 PSMA Fab [5]): 2.07; phage binding ELISA signal with PSMA antigen present (006 PSMA Fab [6]): 0.0979
